Reference: article PMC7864056, “Functional and structural characterization of allosteric activation of phospholipase Cε by Rap1A” (The Journal of Biological Chemistry, 2020)

Columns and labels:
Assay in all cases: cell-based or functional assay
[1] = target: R. norvegicus PLCε PH-COOH K2150A (R. norvegicus, UniProt Q99P84 837-2281, K2150A)
[2] = target: R. norvegicus PLCε PH-COOH variant (residues 837-2282) (R. norvegicus, UniProt Q99P84 837-2281)
[3] = target: R. norvegicus PLCε PH-COOH K2152A (R. norvegicus, UniProt Q99P84 837-2281, K2152A)
Chain of R. norvegicus PLCε PH-COOH K2152A (Q99P84 837-2281 K2152A): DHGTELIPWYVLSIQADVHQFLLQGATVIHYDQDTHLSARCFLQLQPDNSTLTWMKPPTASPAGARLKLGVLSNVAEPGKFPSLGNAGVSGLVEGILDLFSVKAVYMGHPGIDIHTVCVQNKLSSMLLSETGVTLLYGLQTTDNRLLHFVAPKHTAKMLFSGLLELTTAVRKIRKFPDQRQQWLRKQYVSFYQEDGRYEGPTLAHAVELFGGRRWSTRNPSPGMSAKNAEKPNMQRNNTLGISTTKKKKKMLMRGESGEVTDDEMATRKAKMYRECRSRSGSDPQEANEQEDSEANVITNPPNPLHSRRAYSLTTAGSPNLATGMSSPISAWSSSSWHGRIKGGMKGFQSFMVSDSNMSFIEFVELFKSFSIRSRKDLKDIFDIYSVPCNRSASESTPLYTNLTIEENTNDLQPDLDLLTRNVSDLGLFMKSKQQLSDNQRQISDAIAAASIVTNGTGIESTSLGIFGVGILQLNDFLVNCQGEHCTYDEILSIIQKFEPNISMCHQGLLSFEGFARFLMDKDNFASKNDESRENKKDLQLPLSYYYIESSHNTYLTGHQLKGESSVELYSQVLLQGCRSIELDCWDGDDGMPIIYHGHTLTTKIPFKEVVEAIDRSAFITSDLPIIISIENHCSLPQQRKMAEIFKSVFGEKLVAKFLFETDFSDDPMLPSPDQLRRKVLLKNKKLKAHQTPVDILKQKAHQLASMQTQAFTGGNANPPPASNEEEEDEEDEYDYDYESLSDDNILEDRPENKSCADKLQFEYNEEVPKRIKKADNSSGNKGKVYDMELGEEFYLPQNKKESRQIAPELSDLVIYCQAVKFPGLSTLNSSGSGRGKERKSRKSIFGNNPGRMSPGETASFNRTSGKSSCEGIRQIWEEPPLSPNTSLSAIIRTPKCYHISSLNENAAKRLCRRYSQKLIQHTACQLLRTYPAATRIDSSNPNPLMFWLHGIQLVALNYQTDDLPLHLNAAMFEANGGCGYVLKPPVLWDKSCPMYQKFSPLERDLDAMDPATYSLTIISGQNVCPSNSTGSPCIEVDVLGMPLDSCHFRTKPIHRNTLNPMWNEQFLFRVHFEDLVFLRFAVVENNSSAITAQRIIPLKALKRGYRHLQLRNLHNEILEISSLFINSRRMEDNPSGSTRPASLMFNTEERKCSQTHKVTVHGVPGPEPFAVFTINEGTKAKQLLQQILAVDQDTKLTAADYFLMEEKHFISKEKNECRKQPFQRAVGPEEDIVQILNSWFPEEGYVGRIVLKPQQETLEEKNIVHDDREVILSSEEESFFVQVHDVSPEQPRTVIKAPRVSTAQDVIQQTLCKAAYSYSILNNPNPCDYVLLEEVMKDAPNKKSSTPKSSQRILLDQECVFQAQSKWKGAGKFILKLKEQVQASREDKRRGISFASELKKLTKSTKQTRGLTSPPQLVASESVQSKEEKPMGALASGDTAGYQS

Chain of R. norvegicus PLCε PH-COOH K2150A (Q99P84 837-2281 K2150A): as the sequence (Q99P84 837-2281 K2152A) above, with K1314A, A1316K counted along it
Chain of R. norvegicus PLCε PH-COOH variant (residues 837-2282) (Q99P84 837-2281, stated change not applied): as the sequence (Q99P84 837-2281 K2152A) above, with A1316K counted along it

Fold activation by Rap1A^G12V of lipase activity, liposome-based [3H]PIP2 hydrolysis assay [1]: 1.8 fold
Fold activation by Rap1A^G12V of lipase activity, liposome-based [3H]PIP2 hydrolysis assay, increasing concentrations of Rap1A^G12V·GTP [2]: 3 fold
Fold activation by Rap1A^G12V of lipase activity, liposome-based [3H]PIP2 hydrolysis assay [3]: 0.9 fold
B1: constitutively active and prenylated Homo sapiens Rap1A G12V, GTP-bound (natural protein, UniProt P62834 1-184, looked up)
chain: MREYKLVVLGSVGVGKSALTVQFVQGIFVEKYDPTIEDSYRKQVEVDCQQCMLEILDTAGTEQFTAMRDLYMKNGQGFALVYSITAQSTFNDLQDLREQILRVKDTEDVPMILVGNKCDLEDERVVGKEQGQNLARQWCNCAFLESSAKSKINVNEIFYDLVRQINRKTPVEKKKPKKKSCLLL
modifications: prenylated
